The values that follow come from PMC4656997.

For the assay, the target named is GST-CTD substrate (human).

“CDK12^715–1052/CycK^11–267 complex (from UniProt Q9NYV4 715-1052; O75909 11-267)”: the KmCTD from in vitro kinase assay (32P-GST-CTD product) against varying concentrations of GST-CTD substrate was found to be 2 µM. Turning to “full length CDK12/CycK1 complex (from UniProt Q9NYV4-1 1-1490; O75909 1-580)”, the KmCTD from in vitro kinase assay (32P-GST-CTD product) against varying concentrations of GST-CTD substrate, 10 μM ATP, 15 min worked out at 0.3 µM.
